From PMC9354671, “Novel interaction interfaces mediate the interaction between the NEIL1 DNA glycosylase and mitochondrial transcription factor A” (Frontiers in Cell and Developmental Biology, 2022)

Tests used:
Conditions in all cases: both partners purified
[1] = target: T1, NEIL1-Δ100, truncated NEIL1 lacking 100 residues from the disordered C-terminal region (human, UniProt Q96FI4 1-290); assay: pull-down; reverse: Flag-tagged TFAM held on anti-FLAG M2 magnetic beads, NEIL1-FL or NEIL1-Δ100 as prey; with and without DNA; eluted with 3X Flag peptide, SDS-PAGE
T1 construct: NEIL1, human, C-terminal 100 residues deleted; Prakash et al., 2017; Sharma et al., 2018; also called NEIL1-∆100; source: E. coli Rosetta 2, purified
T1 sequence (Q96FI4 1-290, stated change not applied): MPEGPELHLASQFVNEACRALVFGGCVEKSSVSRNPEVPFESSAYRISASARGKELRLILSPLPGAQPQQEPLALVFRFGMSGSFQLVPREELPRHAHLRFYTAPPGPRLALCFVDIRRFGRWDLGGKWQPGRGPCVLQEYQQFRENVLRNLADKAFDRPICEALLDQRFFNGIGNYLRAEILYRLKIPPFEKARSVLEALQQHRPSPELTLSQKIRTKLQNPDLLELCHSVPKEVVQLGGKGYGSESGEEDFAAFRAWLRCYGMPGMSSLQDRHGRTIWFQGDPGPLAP

NEIL1-∆56 = target: T2, NEIL1-∆56 (human, UniProt Q96FI4 1-334); assay: far-Western, overlay or dot blot; 50 pmol NEIL1 polypeptides separated by SDS-PAGE, on PVDF, denatured in 6M guanidine HCl and refolded; incubated with purified TFAM overnight; detected with anti-TFAM antibody
T2 construct: NEIL1, human, C-terminal 56 residues deleted; source: E. coli Rosetta 2, purified
T2 sequence (Q96FI4 1-334): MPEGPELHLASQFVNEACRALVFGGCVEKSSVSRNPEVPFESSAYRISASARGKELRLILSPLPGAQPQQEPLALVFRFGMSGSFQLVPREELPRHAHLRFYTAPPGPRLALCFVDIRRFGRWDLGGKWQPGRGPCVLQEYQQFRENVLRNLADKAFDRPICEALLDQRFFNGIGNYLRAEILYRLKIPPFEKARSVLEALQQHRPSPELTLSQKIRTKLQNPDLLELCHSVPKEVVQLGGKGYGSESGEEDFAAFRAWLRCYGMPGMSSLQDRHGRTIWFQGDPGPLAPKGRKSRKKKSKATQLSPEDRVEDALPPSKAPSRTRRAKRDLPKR

NEIL1-∆40 = target: T3, NEIL1-∆40 (human, UniProt Q96FI4 1-350); assay: as above
T3 construct: NEIL1, human, C-terminal 40 residues deleted; source: E. coli Rosetta 2, purified
T3 sequence (Q96FI4 1-350): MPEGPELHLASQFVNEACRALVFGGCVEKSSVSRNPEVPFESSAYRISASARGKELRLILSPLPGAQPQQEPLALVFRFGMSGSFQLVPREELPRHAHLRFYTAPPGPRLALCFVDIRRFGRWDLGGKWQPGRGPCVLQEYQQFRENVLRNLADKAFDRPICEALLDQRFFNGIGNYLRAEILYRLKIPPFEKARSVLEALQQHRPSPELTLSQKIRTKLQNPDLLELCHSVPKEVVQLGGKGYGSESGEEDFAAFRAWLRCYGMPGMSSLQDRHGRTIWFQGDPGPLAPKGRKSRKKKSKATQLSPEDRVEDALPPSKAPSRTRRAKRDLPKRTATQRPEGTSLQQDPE

NEIL1-∆78 = target: T4, NEIL1-∆78 (human, UniProt Q96FI4 1-312); assay: as above
T4 construct: NEIL1, human, C-terminal 78 residues deleted; source: E. coli Rosetta 2, purified
T4 sequence (Q96FI4 1-312): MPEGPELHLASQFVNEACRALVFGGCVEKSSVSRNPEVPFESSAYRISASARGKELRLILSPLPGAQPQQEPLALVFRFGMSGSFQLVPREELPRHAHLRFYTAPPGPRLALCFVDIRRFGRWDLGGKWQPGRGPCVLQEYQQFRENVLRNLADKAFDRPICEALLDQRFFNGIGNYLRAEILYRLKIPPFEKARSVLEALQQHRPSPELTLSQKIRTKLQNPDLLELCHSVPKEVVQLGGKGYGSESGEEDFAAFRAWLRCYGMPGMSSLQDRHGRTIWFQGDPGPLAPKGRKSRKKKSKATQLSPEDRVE

[2] = target: T5, full-length NEIL1 (NEIL1-FL), C-terminal His-tagged (human, UniProt Q96FI4 1-390); assay: as above
T5 construct: NEIL1 DNA glycosylase, human, full length (390 residues by the printed tail aa 290-390; theoretical mass with tag 44.75 kDa); pET30a plasmid from the Doublié and Wallace laboratories; Called 'untagged' in the Flag pull-down, meaning without Flag; also called NEIL1 DNA glycosylase; source: E. coli Rosetta 2, purified (Talon beads, HiTrap SPFF ion exchange, Superdex 200); not shown: His tag, …
T5 sequence (Q96FI4 whole entry, the tested form may be a part): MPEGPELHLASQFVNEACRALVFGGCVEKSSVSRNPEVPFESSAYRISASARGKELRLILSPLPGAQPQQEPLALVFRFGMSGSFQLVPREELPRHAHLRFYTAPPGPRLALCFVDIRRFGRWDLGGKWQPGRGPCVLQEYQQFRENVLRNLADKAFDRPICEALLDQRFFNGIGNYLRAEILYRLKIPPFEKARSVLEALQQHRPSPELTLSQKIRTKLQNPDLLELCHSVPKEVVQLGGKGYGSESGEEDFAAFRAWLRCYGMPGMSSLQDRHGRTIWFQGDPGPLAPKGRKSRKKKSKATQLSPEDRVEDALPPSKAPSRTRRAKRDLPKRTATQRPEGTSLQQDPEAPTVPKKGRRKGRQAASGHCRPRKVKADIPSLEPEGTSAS

[3] = target: T1, NEIL1-Δ100, truncated NEIL1 lacking 100 …; assay: as above

Row | binding result [1] | binding result (NEIL1-∆56) | binding result (NEIL1-∆40) | binding result (NEIL1-∆78) | binding result [2] | binding result [3] | Binder
1 | binds | – | – | – | – | – | Flag-tagged TFAM (natural protein, UniProt Q00059 43-246, looked up, also called C-terminal Flag-tagged purified TFAM; source: E. coli, purified; not shown: Flag, C-terminal, kept) SSVLASCPKKPVSSYLRFSKEQLPIFKAQNPDAKTTELIRRIAQRWRELPDSKKKIYQDAYRAEWQVYKEEISRFKEQLTPSQIMSLEKEIMDKHLKRKAMTKKKELTLLGKPKRPRSAYNVYVAERFQEAKGDSPQEKLKTVKENWKNLSDSEKELYIQHAKEDETRYHNEMKSWEEQMIEVGRKDLLRRTIKKQRKYGAEEC
2 | – | binds | binds | binds | binds | binds | mitochondrial transcription factor A (TFAM) lacking the mitochondrial targeting sequence (natural protein, UniProt Q00059 43-246, looked up, theoretical MW 25.6 kDa; Printed domain limits: HMG-box A 43-122, linker 122-152, HMG-box B 152-222, C-terminal tail 222-246; Subcloned into pET30a from a full-length ORF plasmid; also called full-length TFAM monomer (lacking the N-terminal MTS); source: E. coli, purified (as Ngo et al., 2011)) SSVLASCPKKPVSSYLRFSKEQLPIFKAQNPDAKTTELIRRIAQRWRELPDSKKKIYQDAYRAEWQVYKEEISRFKEQLTPSQIMSLEKEIMDKHLKRKAMTKKKELTLLGKPKRPRSAYNVYVAERFQEAKGDSPQEKLKTVKENWKNLSDSEKELYIQHAKEDETRYHNEMKSWEEQMIEVGRKDLLRRTIKKQRKYGAEEC
